Measured values from FireProtDB (doi:10.1016/j.bpc.2008.09.020).

Details: Pseudomonas aeruginosa (strain ATCC 15692 / DSM 22644 / CIP 104116 / JCM 14847 / LMG 12228 / 1C / PRS 101 / PAO1), 25 °C, GdnHCl, CD, Sodium acetate 20 mM, whole UniProt chain shown

B1: Cytochrome c-551 wild type, P00099 (protein)
chain: MKPYALLSLLATGTLLAQGAWAEDPEVLFKNKGCVACHAIDTKMVGPAYKDVAAKFAGQAGAEAELAQRIKNGSQGVWGPIPMPPNAVSDDEAQTLAKWVLSQK
In the case of B1, the denaturant m value (pH 3.6) is reported as 2.88 kcal/mol/M, the “denaturant midpoint (higher = more stable)” value (pH 3.6) is reported as 1.44 M and the unfolding free energy (pH 3.6) is reported as 4.14 kcal/mol. The denaturant m value (pH 5) was 2.64 kcal/mol/M, the “denaturant midpoint (higher = more stable)” value (pH 5) was 2.06 M and the unfolding free energy (pH 5) was 5.44 kcal/mol.
